# Test results as given in paper PMC3821034.
# Target: Phenylalanine hydroxylase from Legionella pneumophila (Legionella pneumophila) (UniProt Q5ZS72)
# Assay: crystal structure
substance,measurement,value
Phenylalanine hydroxylase from Legionella pneumophila (from UniProt Q5ZS72 1-272) (enzyme),stoichiometry N,2
